Laboratory results taken from paper PMC8807474, “Single-Molecule Fluorescence Imaging Reveals GABAB Receptor Aggregation State Changes” (Frontiers in Chemistry, 2021).

B1: GBR2-EGFP (receptor, UniProt O75899 42-941, looked up)
chain: WARGAPRPPPSSPPLSIMGLMPLTKEVAKGSIGRGVLPAVELAIEQIRNESLLRPYFLDLRLYDTECDNAKGLKAFYDAIKYGPNHLMVFGGVCPSVTSIIAESLQGWNLVQLSFAATTPVLADKKKYPYFFRTVPSDNAVNPAILKLLKHYQWKRVGTLTQDVQRFSEVRNDLTGVLYGEDIEISDTESFSNDPCTSVKKLKGNDVRIILGQFDQNMAAKVFCCAYEENMYGSKYQWIIPGWYEPSWWEQVHTEANSSRCLRKNLLAAMEGYIGVDFEPLSSKQIKTISGKTPQQYEREYNNKRSGVGPSKFHGYAYDGIWVIAKTLQRAMETLHASSRHQRIQDFNYTDHTLGRIILNAMNETNFFGVTGQVVFRNGERMGTIKFTQFQDSREVKVGEYNAVADTLEIINDTIRFQGSEPPKDKTIILEQLRKISLPLYSILSALTILGMIMASAFLFFNIKNRNQKLIKMSSPYMNNLIILGGMLSYASIFLFGLDGSFVSEKTFETLCTVRTWILTVGYTTAFGAMFAKTWRVHAIFKNVKMKKKIIKDQKLLVIVGGMLLIDLCILICWQAVDPLRRTVEKYSMEPDPAGRDISIRPLLEHCENTHMTIWLGIVYAYKGLLMLFGCFLAWETRNVSIPALNDSKYIGMSVYNVGIMCIIGAAVSFLTRDQPNVQFCIVALVIIFCSTITLCLVFVPKLITLRTNPDAATQNRRFQFTQNQKKEDSKTSTSVTSVNQASTSRLEGLQSENHRLRMKITELDKDLEEVTMQLQDTPEKTTYIKQNHYQELNDILNLGNFTESTDGGKAILKNHLDQNPQLQWNTTEPSRTCKDPIEDINSPEHIQRRLSLQLPILHHAYLPSIGGVDASCVSPCVSPTASPRHRHVPPSFRVMVSGL
notes: GABAB receptor subunit 2 (GBR2, GABAB2); source: HEK293, transfected, expressed alone at low expression level, on cells

How the values were obtained:
O75899 = test: single-molecule photobleaching step counting (TIRFM); GBR1-EGFP co-expressed with unlabeled GBR2 in HEK293 cells; EGFP spots on the cell membrane; one bleaching step = one heterodimer, two steps = tetramer of two heterodimers (heterodimers to tetramer); resting state; also after 1 mM GABA …; settings: other: single-molecule photobleaching step counting (TIRFM)
[1] = target: the molecule itself; test: single-molecule photobleaching step counting (TIRFM); GBR2-EGFP expressed alone at low expression level in HEK293 cells; EGFP spots on the cell membrane; monomer to homodimer

Row | Molecule | percent of spots with one-step bleaching (single heterodimer) (O75899) | percent of spots with two-step bleaching (tetramer of two heterodimers) (O75899) | stoichiometry N [1]
1 | GABAB receptor heterodimer GBR1-EGFP/GBR2 | about 50% population | about 30% receptors | –
2 | B1 | – | – | 2
